Results: patent US20070111265A1, “Ligands for mineralocorticoid receptor (MR) and methods for screening for or designing MR ligands” (Van Andel Research Institute, priority 2005, published 2007)

T1: purified MR/corticosterone complex (MR LBD C808S) (Homo sapiens, UniProt P08235, C808S)
T1 construct: made in house; host or cells: E. coli BL21DE3 (pET24a)
T1 sequence (P08235 727-984 C808S): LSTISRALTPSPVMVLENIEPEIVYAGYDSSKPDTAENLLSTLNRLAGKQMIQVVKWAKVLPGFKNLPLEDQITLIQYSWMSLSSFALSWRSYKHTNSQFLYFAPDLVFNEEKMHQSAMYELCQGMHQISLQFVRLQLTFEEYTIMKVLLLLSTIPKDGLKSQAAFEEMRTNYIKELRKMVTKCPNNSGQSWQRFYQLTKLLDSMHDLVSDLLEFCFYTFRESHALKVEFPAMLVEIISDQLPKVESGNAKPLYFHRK

T2: VP16-MR LBD (Homo sapiens, UniProt P08235)
T2 construct: expressed in transfected cells; host or cells: Cos-7
T2 sequence (P08235 727-984): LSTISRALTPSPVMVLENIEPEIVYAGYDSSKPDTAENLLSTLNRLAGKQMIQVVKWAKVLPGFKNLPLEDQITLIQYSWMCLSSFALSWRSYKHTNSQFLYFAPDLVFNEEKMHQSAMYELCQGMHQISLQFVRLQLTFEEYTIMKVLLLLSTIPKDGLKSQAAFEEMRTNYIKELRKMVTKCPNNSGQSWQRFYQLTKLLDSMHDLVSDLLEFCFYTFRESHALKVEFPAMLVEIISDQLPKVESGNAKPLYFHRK

B1: SRC2-(M2+3): SRC2 fragment in which the 2nd LXXLL motif was mutated to LXXAA (protein)
chain: QNSPVNMNPPPLSKMGSLDSKDCFGLYGEPSEGTTGQAESSCHPGEQKETNDPNLPPAVSSERADGQSRLHDSKGQTKLLQLLTTKSDQMEPSPLASSLSDTNKDSTGSLPGSGSTHGTSLKEKHKILHRAAQDSSSPVDLAKLTAEATGKDLSQESSSTAPGSEVTIKQEPVSPKKKENALLRYLLDKDDTKDIGLPEIT
modifications: left off: small tags and cut ends; a dimerising Fc or GST
notes: SRC2 fragment in which the 2nd LXXLL motif was mutated to LXXAA
B2: SRC1-4M: GAL4-DBD SRC1-4 with LXXAA mutation of the SRC1-4 motif (protein)
chain: QGEANFAPSLSPGSSMVPMPIPPPQSSLLQQTPPASGYQSPDMKAWQQGAIGNNNVFSQAVQNQPTPAQPGVYNNMSITVSMAGGNTNVQNMNPMMAQMQMSSLQMPGMNTVCPEQINDPALRHTGLYCNQLSSTDLLKTEADGTQQVQQVQVFADVQCTVNLVGGDPYLNQPGPLGTQKPTSGPQTPQAQQKSLLQQAATE
modifications: left off: large carriers; small tags and cut ends
notes: GAL4-DBD SRC1-4 with LXXAA mutation of the SRC1-4 motif
B3: SRC1-4 E1441K: GAL4-DBD SRC1-4 with E+7K mutation of the SRC1-4 motif (protein)
chain: QGEANFAPSLSPGSSMVPMPIPPPQSSLLQQTPPASGYQSPDMKAWQQGAIGNNNVFSQAVQNQPTPAQPGVYNNMSITVSMAGGNTNVQNMNPMMAQMQMSSLQMPGMNTVCPEQINDPALRHTGLYCNQLSSTDLLKTEADGTQQVQQVQVFADVQCTVNLVGGDPYLNQPGPLGTQKPTSGPQTPQAQQKSLLQQLLTK
modifications: left off: large carriers; small tags and cut ends
notes: GAL4-DBD SRC1-4 with E+7K mutation of the SRC1-4 motif
B4: PGC1α-(1+2): purified human PGC1α fragment (residues 1-220) containing both LXXLL motifs (protein)
chain: MAWDMCNQDSESVWSDIECAALVGEDQPLCPDLPELDLSELDVNDLDTDSFLGGLKWCSDQSEIISNQYNNEPSNIFEKIDEENEANLLAVLTETLDSLPVDEDGLPSFDALTDGDVTTDNEASPSSMPDGTPPPQEAEEPSLLKKLLLAPANTQLSYNECSGLSTQNHANHNHRIRTNPAIVKTENSWSNKAKSICQQQKPQRRPCSELLKYLTTNDDP
modifications: left off: small tags and cut ends; a dimerising Fc or GST
notes: purified human PGC1α fragment (residues 1-220) containing both LXXLL motifs

How the values were obtained:
[1] = molecular target: T1, purified MR/corticosterone complex (MR LBD C808S); assay: AlphaScreen peptide competition (IC50) of coactivator LXXLL motifs; assay type: binding
Excerpt: (D) Binding affinity of various coactivator LXXLL motifs to the purified MR/corticosterone complex as determined by IC50 values from peptide competition experiments using AlphaScreen assays. The numbering scheme of the LXXLL motifs is shown on the top of the sequences.
SRC2-(2+3) and […] SRC2 protein fragments containing 2nd and 3rd LXXLL motifs. The 2nd LXXLL motif of SRC2 was mutated to LXXAA in SRC2-(M2+3).
(G) Binding affinity of PGC1α-(1+2), PGC1α-1 and PGC1α-2 to the purified MR/corticosterone complex as determined by IC50 values from peptide competition experiments.
The fusion protein contains a His6-TAG ([…]) at the N terminus and a thrombin protease site between GST and the MR LBD. BL21DE3 cells transformed with this expression plasmid were grown in LB broth at 16° C. to an OD600 of ˜1 and induced with 0.1 mM IPTG and 50 μM corticosterone. Cells were harvested, resuspended in 400 ml extract buffer (50 mM Tris[pH8.0], 150 mM NaCl, 2 M Urea, 10% glycerol) per 24 liters of cells, and passed three times through a French Press with pressure set at […]. […] Both human PGC1α (1+2) (residues 1-220) and SRC2-(2+3) (residues 563-763) were expressed as a 6×His-GST fusion protein from the expression vector pET24a (Novagen). […]
The binding of various peptide motifs to MR was determined by AlphaScreen assays using a hexahistidine detection kit from Perkin-Elmer. […]

[2] = molecular target: T2, VP16-MR LBD; assay: Mammalian two hybrid assay, pG5Luc reporter; assay type: cell-based; conditions: 10 nM corticosterone
Procedure: (C) Mammalian two-hybrid interaction of SRC1 with MR. GAL4-DBD were fused with the SRC1-4 motif (SRC1-4, residues 1240-1441) and two mutated forms of SRC1-4 [SRC1-4(E1441K), corresponding to E+7K mutation of the SRC1-4 motif, and SRC1-M4 (L1438A/L1439A), corresponding to the LXXAA mutation of the SRC1-4 motif], respectively. VP16 were fused with MR LBD and MR LBD (K782E). The cells were cotransfected with GAL4 and VP16 fusion constructs and pG5Luc reporter. The cells were treated with 10 nM corticosterone.
Cos-7 cells were maintained in DMEM containing 10% fetal bovine serum (FBS) and were transiently transfected using Lipofectamine 2000 (Invitrogen). 24-Well plates were plated 24 hr prior to transfection (5×10^4 cells per well). Cells were transfected in Opti-MEM with 400 ng of MMTV-Luc reporter plasmid and 400 ng of receptor expression vector (pRS vector) encoding full-length GR and MR respectively (ATCC). […] For cotransfection of MR and SRC1, 50 ng Gal4-MR LBD was transfected with 200 ng pG5Luc and various amounts of PCR3.1-SRC1 as indicated in the figure legend. 18 hours after transfection, steroids were added in DMEM supplemented with 5% Charcoal/Dextran treated FBS (Hyclone). Cells were harvested 24 hours later for luciferase assays. Luciferase data were normalized to Renilla activity as an internal control. […]

Molecule	interaction with MR LBD [2]	other results
B1	–	decrease of binding affinity versus SRC2-(2+3) ([1]; second LXXLL motif mutated): more than 10 fold
B2	abolished the interaction	–
B3	failed to interact	–
B4	–	binding affinity to MR ([1]; compared with single motifs, FIG. 3G): much higher affinity than either motif alone
